Results on 1 molecule are retold here after paper PMC6201861.

This assay deals with mAb-hERG1. Put plainly: SPR; Biacore T200; mAb-hERG1 bound to a Protein G pre-coated CM5 chip (7693 RU); S5-Pore applied at 10, 50, 100, 500 nM, single cycle kinetics; contact 30 s, dissociation 120 s, 30 ul/min.
Chain of mAb-hERG1 (heavy, as listed by the source, chain 1 of 2): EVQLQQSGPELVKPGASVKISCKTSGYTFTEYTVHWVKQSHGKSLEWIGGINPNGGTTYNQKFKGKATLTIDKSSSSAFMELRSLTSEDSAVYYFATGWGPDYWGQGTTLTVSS
Chain of mAb-hERG1 (light, as listed by the source, chain 2 of 2): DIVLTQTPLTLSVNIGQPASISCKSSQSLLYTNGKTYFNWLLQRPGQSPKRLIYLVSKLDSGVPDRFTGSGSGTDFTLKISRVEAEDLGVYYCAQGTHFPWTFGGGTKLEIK

B1: S5-Pore peptide (peptide)
peptide: EQPHMDSRIGWLHN
In turn, B1 displayed a Kd of 16.2 nM, a koff of 0.0258 s⁻¹ and a kon of 1.6e+06 M⁻¹ s⁻¹.
